From paper PMC3601010 (BMC Biochemistry, 2013) come the findings set out here.

Ends that are not written are not given here.

The target in test [1] is T1, α-thrombin (UniProt P00734 364-622). The test is described as follows: SPR; competition: BIAcore X, 25°C; biotinylated HCII 1-75 on streptavidin-coated chip; peptides combined with 250 nM thrombin immediately before flowing over the chip; Ki from IC50 and the KD of 340 nM. The conditions noted are these: both partners purified. On the technique in general: In SPR one partner is held on a chip, and binding of the other changes the refractive index at the surface.

Test [2] addresses T1, α-thrombin. The test is described as follows: cell-based or functional assay.
Test [3] has as its target T1, α-thrombin. The experiment in a line: ELISA; competition: HCII 1-75 immobilised on microtiter wells; competitor peptides added with 5 nM α-thrombin; ratio of absorbance with and without competitor; IC50 by linear regression of log-transformed plots. To be noted: both partners purified.

B1: HCII 54-75 (synthetic peptide containing residues 54-75 of human HCII and a nonapeptide N-terminal tag) (peptide)
chain: GEEDDDYLDLEKIFSEDDDYID
modifications: not fully specified (N-terminus); ends and bridges not checked; also: nonapeptide N-terminal tag, unmodified amino terminus
For B1, in the test with α-thrombin [1], the Ki – broadly, a measure of affinity in units of concentration, obtained from inhibition or displacement – came out at 8.5 µM; the “Ki of equimolar HCII 54-75 and HCII 1-53” value came to 13 µM. For the same molecule, in the test with α-thrombin [2], the “fold reduction of the apparent second-order rate constant of inhibition of 14 nM thrombin by 140 nM plasma-derived HCII with 55 μg/mL standard heparin, 250 μM peptide (Figure 5A)” value stood at 1.6 fold and the “fold reduction of the apparent second-order rate constant of inhibition of thrombin by plasma-derived HCII with 1.4 μM dermatan sulfate, 250 μM peptide (Figure 5B)” value came out at 1.6 fold. Also, the IC50 (as a rule, the concentration needed to halve the response being measured) in the test with α-thrombin [3] was found to be 110 µM.
